Test [1] deals with T1, human CX3CR1 (human, UniProt P49238 1-355).
T1 sequence: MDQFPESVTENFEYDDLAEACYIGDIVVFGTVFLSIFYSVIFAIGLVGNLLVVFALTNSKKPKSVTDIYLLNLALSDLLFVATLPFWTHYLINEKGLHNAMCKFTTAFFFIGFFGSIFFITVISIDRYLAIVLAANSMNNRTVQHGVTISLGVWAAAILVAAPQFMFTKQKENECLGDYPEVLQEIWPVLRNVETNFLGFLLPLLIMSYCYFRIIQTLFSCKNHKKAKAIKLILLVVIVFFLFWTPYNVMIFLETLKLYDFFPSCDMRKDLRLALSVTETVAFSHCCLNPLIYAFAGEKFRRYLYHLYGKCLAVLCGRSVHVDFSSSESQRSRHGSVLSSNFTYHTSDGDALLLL
The test can be described thus: cell-based or functional assay.

Test [2] concerns the target T1, human CX3CR1. Description: binding to hCX3CR1-expressing Eurofins cells.
Test [3] deals with T1, human CX3CR1. Description: cell-based or functional assay. The source holds these as a separate data set.
The target of test [4] is T2, mouse CX3CR1 (mouse, UniProt Q9Z0D9 1-354).
T2 construct: whole, on cells; Expressed on Ba/F3 cells; also called mCX3CR1
T2 sequence (looked up): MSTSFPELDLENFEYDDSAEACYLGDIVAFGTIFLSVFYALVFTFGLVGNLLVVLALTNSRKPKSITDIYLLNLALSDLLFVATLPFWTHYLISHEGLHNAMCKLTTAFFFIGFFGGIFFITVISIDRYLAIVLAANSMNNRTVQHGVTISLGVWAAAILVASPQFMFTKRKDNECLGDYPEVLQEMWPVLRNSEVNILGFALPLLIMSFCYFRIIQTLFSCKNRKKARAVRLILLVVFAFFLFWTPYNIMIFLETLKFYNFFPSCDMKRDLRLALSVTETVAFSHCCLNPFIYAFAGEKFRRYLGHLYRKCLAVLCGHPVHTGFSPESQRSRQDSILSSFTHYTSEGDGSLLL
The test can be described thus: flow cytometry, CX3CR1-expressing Ba/F3 cells.

The target of test [5] is T3, rat CX3CR1 (rat, UniProt P35411 1-354).
T3 construct: whole, on cells; Expressed on Ba/F3 cells; also called rCX3CR1
T3 sequence (looked up): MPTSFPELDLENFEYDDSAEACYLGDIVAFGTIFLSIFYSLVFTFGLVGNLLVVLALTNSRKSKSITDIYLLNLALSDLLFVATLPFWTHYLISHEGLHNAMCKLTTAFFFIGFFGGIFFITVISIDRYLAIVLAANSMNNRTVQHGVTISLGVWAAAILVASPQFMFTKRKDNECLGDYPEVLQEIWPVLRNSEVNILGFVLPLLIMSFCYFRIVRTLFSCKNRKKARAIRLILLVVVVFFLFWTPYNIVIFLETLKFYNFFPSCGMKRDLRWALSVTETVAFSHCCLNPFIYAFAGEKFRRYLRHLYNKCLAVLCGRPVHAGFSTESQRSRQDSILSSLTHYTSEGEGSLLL
The test can be described thus: flow cytometry, CX3CR1-expressing Ba/F3 cells.

In test [6] the target is T2, mouse CX3CR1. The test can be described thus: flow cytometry, chimeric CX3CR1-expressing Ba/F3 cells. For orientation: A flow cytometer gives signals particle by particle.
For test [7], the target named is T4, mCX3CR1-2 (chimeric CX3CR1).
T4 construct: Whole, on Ba/F3 cells
The description is as above.

Test [8] has as its target T5, mCX3CR1-3 (chimeric CX3CR1).
T5 construct: Whole, on Ba/F3 cells
The description is as above.

The target in test [9] is T6, mCX3CR1-4 (chimeric CX3CR1).
T6 construct: Whole, on Ba/F3 cells
Described as above.

Test [10] addresses T1, human CX3CR1. The test can be described thus: flow cytometry, binding to hCX3CR1-expressing Ba/F3 cells.
The target in test [11] is T1, human CX3CR1. The test can be described thus: flow cytometry, chimeric CX3CR1-expressing Ba/F3 cells, 200 nM, grade vs positive antibody (+++ >70%, ++ 40-70%, + 10-40%, - <10%).
Test [12] deals with T7, hCX3CR1-1 (chimeric CX3CR1).
T7 construct: Whole, on Ba/F3 cells
The description is as above.

Test [13] has as its target T8, hCX3CR1-2 (chimeric CX3CR1).
T8 construct: Whole, on Ba/F3 cells
The description is as above.

For test [14], the target named is T9, hCX3CR1-3 (chimeric CX3CR1).
T9 construct: Whole, on Ba/F3 cells
Described as above.

Test [15] deals with T10, hCX3CR1-4 (chimeric CX3CR1).
T10 construct: Whole, on Ba/F3 cells
The test is described as above.

Test [16] addresses T11, mCX3CR1-1 (chimeric CX3CR1).
T11 construct: Whole, on Ba/F3 cells
The test is described as above.

The target in test [17] is T1, human CX3CR1. Description: cell-based or functional assay. This is another data set of the same source.
For test [18], the target named is T1, human CX3CR1. Description: flow cytometry, EC50 on hCX3CR1-expressing Ba/F3 cells, against m1F8.
For test [19], the target named is T6, mCX3CR1-4 (chimeric CX3CR1). The test can be described thus: flow cytometry, chimeric CX3CR1-expressing Ba/F3 cells, 200 nM, grade vs positive antibody (+++ >70%, ++ 40-70%, + 10-40%, - <10%).
The target of test [20] is T2, mouse CX3CR1. The test can be described thus: flow cytometry, CX3CR1-expressing Ba/F3 cells, relative to Synagis.
Test [21] concerns the target T3, rat CX3CR1. Described as above.

Where two headings read alike, the source gives them in different places.

B1: h1F8-2-1 (antibody, V domains shown)
VH: QVQLVQSGAEVKKPGSSVKVSCKASGFTFTNYWMQWIRQAPGQGLEWIGAIYPGSGESRYTRKFKGRATITADKSTSTAYMELSSLRSEDTAVYYCARWAGYSRNAAYWGQGTLVTVSS
VL: DIVMTQTPLSLPVTPGEPASISCRSRQSIVHSSGNTYLEWYLQKPGQSPQLLIYKVSNRFSGVPDRFSGSGSGTDFTLKISRVEAEDVGVYYCFQGSHIPPTFGGGTKVEIK
notes: Humanized antibody; also called humanized 1F8 antibody h1F8-2-1
In the case of B1, the “Cell migration inhibitory activity (IC50, nM)” value in test [1] was determined as 2.02 nM. The EC50 in test [2] was 4.42 nM.

B2: m1F8-1 antibody (antibody, V domains shown)
VH: QVQLQQSGAELARPGASVKLSCKASGFTFTNYWMQWIKQRPGQGLEWIGAIYPGSGESRYTRKFKGKATLTADKSSSTAYMQLNSLASEDSAVYYCARWAGYSRNAAYWGQGTLVTVSA
VL: DVLMTQTPLSLPVSLGDQASISCRSSQSIVHSSGNTYLEWYLQKPGQSPKLLIYKVSNRFSGVPDRFSGSGSGTDFTLKISRVEAEDLGVYYCFQGSHIPPTFGGGTKLEIK
notes: also called activity-enhanced m1F8 antibody
Turning to B2, the “Cell migration inhibitory activity (IC50, nM)” value in test [3] amounted to 5.32 nM. In addition, the binding result in [4] and in [5] was “no binding (tested: <10% of positive antibody at 200 nM)” throughout. In addition, the “relative measured value (flow cytometry reactivity, MFI) compared to positive antibody at 200 nM” value (from here on “relative measured value”) was less than 10% in [6]; less than 10% in test [7]; less than 10% in test [8]; less than 10% in [9]; more than 70% in test [11]; 40 to 70% in test [12]. For the same molecule, the “relative measured value” value in [13], in test [14], in test [15] and in [16] was more than 70% each time. Further, the EC50 in [10] is 6.69 nM.

B3: h1F8-2-4 (antibody, V domains shown)
VH: QVQLVQSGAEVKKPGSSVKVSCKASGFTFTNYWMQWIRQAPGQGLEWIGAIYPGSGESRYTRKFKGRVTITADKSTSTAYMELSSLRSEDTAVYYCARWAGYSRNAAYWGQGTLVTVSS
VL: DIVMTQTPLSLPVTPGEPASISCRSRQSIVHSSGNTYLEWYLQKPGQSPQLLIYKVSNRFSGVPDRFSGSGSGTDFTLKISRVEAEDVGVYYCFQGSHIPPTFGGGTKVEIK
notes: Humanized antibody; also called humanized 1F8 antibody h1F8-2-4
For B3, the “Cell migration inhibitory activity (IC50, nM)” value in test [1] stood at 2.61 nM. In test [2], this molecule came in with an EC50 of 4.42 nM.

B4: m1F8-2 antibody (antibody, V domains shown)
VH: QVQLQQSGAELARPGASVKLSCKASGFTFTNYWMQWIKQRPGQGLEWIGAIYPGSGESRYTRKFKGKATLTADKSSSTAYMQLNSLASEDSAVYYCARWAGYSRNAAYWGQGTLVTVSA
VL: DVLMTQTPLSLPVSLGDQASISCRSRQSIVHSSGNTYLEWYLQKPGQSPKLLIYKVSNRFSGVPDRFSGSGSGTDFTLKISRVEAEDLGVYYCFQGSHIPPTFGGGTKLEIK
notes: as for B2
For B4, the “improvement in inhibitory activity against fractalkine-dependent cell migration compared to the original m1F8 antibody” value in test [17] is not below 15 fold. The “Cell migration inhibitory activity (IC50, nM)” value in test [3] turned out to be 2.96 nM. Further, the binding result in test [4] and in test [5] was “no binding (tested: <10% of positive antibody at 200 nM)” each time. The “relative measured value” value in test [6] was less than 10%; in test [7] it was less than 10%; in test [8] it was less than 10%; in [11] it was more than 70%; in test [12] it was 40 to 70%; in [13], more than 70%. Also, the “relative measured value” value is more than 70% in [14], more than 70% in test [15], more than 70% in test [16] and 10 to 40% in test [19]. The same molecule came in with an EC50 in [10] of 2.67 nM. Besides, the “fold improvement in binding activity compared to the original m1F8 antibody” value in [18] is not below 70 fold.

B5: h1F8-2-2 antibody (antibody, IgG1, V domains shown)
VH: QVQLVQSGAEVKKPGSSVKVSCKASGFTFTNYWMQWIRQAPGQGLEWIGAIYPGSGESRYTRKFKGKATITADKSTSTAYMELSSLRSEDTAVYYCARWAGYSRNAAYWGQGTLVTVSS
VL: DIVMTQTPLSLPVTPGEPASISCRSRQSIVHSSGNTYLEWYLQKPGQSPQLLIYKVSNRFSGVPDRFSGSGSGTDFTLKISRVEAEDVGVYYCFQGSHIPPTFGGGTKVEIK
notes: Humanized antibody; also called humanized 1F8 antibody (h1F8-2-2)
Take B5: the “Cell migration inhibitory activity (IC50, nM)” value in [1] was 1.27 nM. This molecule had an EC50 in test [2] of 3.1 nM. The binding result in test [20] and in test [21] was “no binding” in each case.

B6: h1F8-2-3 (antibody, V domains shown)
VH: QVQLVQSGAEVKKPGSSVKVSCKASGFTFTNYWMQWIRQAPGQGLEWIGAIYPGSGESRYTRKFKGRATLTADKSTSTAYMELSSLRSEDTAVYYCARWAGYSRNAAYWGQGTLVTVSS
VL: DIVMTQTPLSLPVTPGEPASISCRSRQSIVHSSGNTYLEWYLQKPGQSPQLLIYKVSNRFSGVPDRFSGSGSGTDFTLKISRVEAEDVGVYYCFQGSHIPPTFGGGTKVEIK
notes: Humanized antibody; also called humanized 1F8 antibody h1F8-2-3
Take B6: in test [1], the “Cell migration inhibitory activity (IC50, nM)” value turned out to be 1.4 nM. In addition, in [2], the EC50 came to 4.02 nM.

What is called EC50 is the concentration at which the effect is half-maximal.

Source of the values: patent publication EP4640709A1 (CHIOME BIOSCIENCE INC., dated 2025).
